Common to all, as to test: SPR; Biacore S200; Bcl-2 family proteins immobilised on CM5 (amine coupling or His-Capture Kit); peptides and flag-tagged proteins as analytes, single-cycle kinetics, HBS-EP, 25 °C; 1:1 Langmuir model; absence of binding probed at 100 nM and 3 µM
A general note: SPR reads the build-up and loss of mass on a sensor chip optically.

One test addresses Bcl-xL (human) (UniProt Q07817).
The target in the next test is Bcl-2 (human) (UniProt P10415).
The target of test [1] is His-tagged human Mcl-1 (human) (UniProt Q07820).
His-tagged human Mcl-1 (human), sequence (Q07820 whole entry): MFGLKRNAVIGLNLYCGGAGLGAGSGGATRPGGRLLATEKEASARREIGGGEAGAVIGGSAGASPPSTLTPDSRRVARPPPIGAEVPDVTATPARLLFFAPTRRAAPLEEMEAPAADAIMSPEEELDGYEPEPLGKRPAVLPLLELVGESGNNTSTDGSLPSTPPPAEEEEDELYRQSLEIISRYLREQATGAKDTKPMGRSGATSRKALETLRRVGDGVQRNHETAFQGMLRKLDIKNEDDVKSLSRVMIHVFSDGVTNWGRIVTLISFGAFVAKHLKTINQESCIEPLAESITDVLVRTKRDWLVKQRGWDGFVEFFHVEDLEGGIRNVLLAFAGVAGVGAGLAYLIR

Bcl-xL (human), sequence (Q07817 whole entry): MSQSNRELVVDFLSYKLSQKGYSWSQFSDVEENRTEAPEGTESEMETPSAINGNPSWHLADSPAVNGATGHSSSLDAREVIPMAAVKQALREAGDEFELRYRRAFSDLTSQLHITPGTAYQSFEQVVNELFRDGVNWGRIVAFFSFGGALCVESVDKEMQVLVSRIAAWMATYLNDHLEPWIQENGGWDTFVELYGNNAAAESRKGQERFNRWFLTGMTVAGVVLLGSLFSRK

B1: Bid BH3 peptide (25-mer, residues 77-101) (peptide)
peptide: ESQEDIIRNIARHLAQVGDSMDRSI
Take B1: the values for the Kd (with Bcl-xL (human); with Bcl-2 (human); in test [1]) were 0.00712 µM, 0.0967 µM and 0.0128 µM, respectively.

B2: Bid (A87I) peptide (peptide)
peptide: ESQEDIIRNIIRHLAQVGDSMDRSI
Regarding B2, the Kd (in general, a measure of binding affinity in units of concentration) in the test with Bcl-xL (human) is 0.0285 µM; with Bcl-2 (human), 0.158 µM.
